From US20120308564A1 (published 2012)

Columns and labels:
[1] = biological target: T1, human IL-18 (human, UniProt Q14116 37-193); assay: method not given; the same paragraph names BIAcore and FORTEbio as possible methods and mentions 25 C
T1 construct: also called Interleukin-18
T1 sequence (looked up): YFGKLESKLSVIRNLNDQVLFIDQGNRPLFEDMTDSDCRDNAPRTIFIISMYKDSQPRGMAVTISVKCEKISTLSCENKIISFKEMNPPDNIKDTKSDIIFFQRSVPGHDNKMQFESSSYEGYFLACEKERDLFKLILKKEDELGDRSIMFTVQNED

[2] = biological target: T1, human IL-18; assay: cell-based or functional assay

B1: H1L2 (SEQ ID NO:7 and SEQ ID NO:11) (antibody, human IgG1, kappa, V domains shown)
VH: QVQLVQSGAEVKKPGASVKVSCKVSGEISTGYYFHWVRQAPGKGLEWMGRIDPEDDSTKYAERFKDRVTMTEDTSTDTAYMELSSLRSEDTAVYYCTTWRIYRDSSGRPFYVMDAWGQGTLVTVSS
VL: DIQMTQSPSSVSASVGDRVTITCLASEDIYTYLTWYQQKPGKAPKLLIYGANKLQDGVPSRFSGSGSGTDYTLTISSLQPEDFATYYCLQGSKFPLTFGQGTKLEIKR
notes: also called anti-IL-18 antibody H1L2
In the case of B1, the Kd [1] is reported as 0.0303 nM, the “IL-6 gene expression in IL-18 stimulated ex-vivo human whole blood (Affymetrix microarray), IL-18 50 ng/ml + H1L2 1 ug/ml vs IL-18 alone” value [2] is reported as 7 fold decrease and the “IRS2 gene expression in IL-18 stimulated ex-vivo human whole blood (microarray), IL18+H1L2 vs IL18 alone” value [2] is reported as 1.4 fold increase. For the same binder, the “JAK2 gene expression in IL-18 stimulated ex-vivo human whole blood (microarray), IL18+H1L2 vs IL-18 alone” value [2] was 2.1 fold decrease, the “MCP-1 gene expression in IL-18 stimulated ex-vivo human whole blood (microarray), IL18+H1L2 vs IL18 alone” value [2] was 2.6 fold decrease and the “MCP-4 gene expression in IL-18 stimulated ex-vivo human whole blood (microarray), IL18+H1L2 vs IL18 alone” value [2] was 2.5 fold decrease. The “PPAR gamma gene expression in IL-18 stimulated ex-vivo human whole blood (microarray), IL18+H1L2 vs IL18 alone” value [2] was 1.7 fold increase, the “SOCS3 gene expression in IL-18 stimulated ex-vivo human whole blood (microarray), IL18+H1L2 vs IL-18 alone” value [2] was 1.9 fold decrease and the “STAT3 gene expression in IL-18 stimulated ex-vivo human whole blood (microarray), IL18+H1L2 vs IL-18 alone” value [2] was 1.6 fold decrease.
